# Results: the Human Domainome abundance scans (Beltran et al. 2025)
# ± gives the uncertainty stated by the source.
# B1: Double-stranded RNA-binding protein Staufen homolog 1, residues 183 to 249; numbered along this chain, O95793 (parent)
# chain: KSEISQVFEIALKRNLPVNFEVARESGPPHMKNFVTKVSVGEFVGEGEGKSKKISKKNAAIAVLEEL
# Variants of: B1
# Assay: abundance fitness (aPCA) (normalised: wild type 0, dead -1); higher = more abundant; growth selection in yeast, the domain comes from the species named
# Details: Homo sapiens
row,Variant,abundance fitness
1,KSMISQVFEIALKRNLPVNFEVARESGPPHMKNFVTKVSVGEFVGEGEGKSKKISKKNAAIAVLEEL [E3M],-0.509 ± 0.055
2,KSEISQVFEIALKRNLPVNFEVARESGPPHMKNFVTKVSVGEFVGEGEGKSKKISKKNAAIAVLREL [E65R],0.093 ± 0.036
3,KSEISQVFEIALKRNLPVNFEVARESGPPHMKNFVTKVSVGEFVGEGEGKSKKISKKNAAIAVLGEL [E65G],-0.079 ± 0.043
4,KSEISQVFEIALKRNLPVNFEVARESGPPHMKNFVTKVSVGEFVGTGEGKSKKISKKNAAIAVLEEL [E46T],0.071 ± 0.06
5,KSEISQVFEIALKRNLPVNFEVARESGPPHMKNFVTKVSVGEFVGSGEGKSKKISKKNAAIAVLEEL [E46S],-0.051 ± 0.069
6,KSEISQVFEIALKRNLPNNFEVARESGPPHMKNFVTKVSVGEFVGEGEGKSKKISKKNAAIAVLEEL [V18N],-0.906 ± 0.14
7,KSEISQVFEIALKRNLPVNFEVARESGPPHMKNFVTKVSVGEFVGEGEGGSKKISKKNAAIAVLEEL [K50G],-0.184 ± 0.046
8,KSEISQVFEIALKRNLPVNFEVARESGPPHMKNFVTKVSVGEFVGEGEGKSKKISEKNAAIAVLEEL [K56E],-0.504 ± 0.094
9,KSEISQVFEIALKRNLPVNFEVARESGPPHMKNFVTKVSVGEFHGEGEGKSKKISKKNAAIAVLEEL [V44H],-0.102 ± 0.15
10,KSEISQVFEIALKRNLPVNFEVARESGPPHMKNFVTKVSVGEFLGEGEGKSKKISKKNAAIAVLEEL [V44L],-0.14 ± 0.052
11,KSEISQVFEIALKRNLPVNFEVARESGPPHMKNFVTCVSVGEFVGEGEGKSKKISKKNAAIAVLEEL [K37C],-0.251 ± 0.23
12,KSEISQVFEIALKRNLPVNFEVARESGPPHMKNFVTKVSVMEFVGEGEGKSKKISKKNAAIAVLEEL [G41M],-0.888 ± 0.095
13,KSEISQVFEIALKRNLPVNFEVARESGPPHMKNFVTKVSVGEFVGEGEGKSKKISKKNAAIAVLEEN [L67N],-0.584 ± 0.18
14,KSEISQVFEIALKRNLPVNFEVARESGPPHMKNFVTKVSVGEFVGEGEGKSKKISKKNAAIAVLEEF [L67F],-0.355 ± 0.11
15,KSEISQVFEIALKHNLPVNFEVARESGPPHMKNFVTKVSVGEFVGEGEGKSKKISKKNAAIAVLEEL [R14H],-0.155 ± 0.084
16,KSEISQVFEIALKRNLPVNFEVARESGPPHMKNFVTKVSVGEFVGEGEGKSKKISKKNAAIAQLEEL [V63Q],-0.597 ± 0.065
17,KSEISQVFEIALKRNLPVNFEVARESGPPHMKNFVFKVSVGEFVGEGEGKSKKISKKNAAIAVLEEL [T36F],-1.38 ± 0.32
18,KSEISQVFEIALKRNLPVNFEVARESGPPHMKNFVTKVSVGEFVGEGEGKSKKISKKNAAIDVLEEL [A62D],-0.185 ± 0.072
19,KSEISQVFEIALKRNLPVNFEVARESGPPHMKNFVTKVSVGEFVGEGEGKSKKISKKNAAIQVLEEL [A62Q],-0.086 ± 0.055
20,KSEISQVFEIALKRNLPVNFEVARESGPPHMKNFVTKVSVGEFVGEGEGKSKKISKKGAAIAVLEEL [N58G],-0.655 ± 0.054

row,Variant,abundance fitness
1,KSEISQVFEIALKRNLPVNFEVARESGPPHMKNFVTKVSVGEFVGEGEGKSKKISKKNAEIAVLEEL [A60E],-0.575 ± 0.056
2,KSEISQVFEIALKRNLPVNFEVARESGPPHMKNFVTKVSVGEFVGEGEGKSKKISKKNADIAVLEEL [A60D],-0.649 ± 0.089
3,KSEISQVFEIALKRNLPVNFEVARESGPPHMKCFVTKVSVGEFVGEGEGKSKKISKKNAAIAVLEEL [N33C],-0.163 ± 0.1
4,KSEISQVFEIALKRNLPVNFEVSRESGPPHMKNFVTKVSVGEFVGEGEGKSKKISKKNAAIAVLEEL [A23S],-0.063 ± 0.038
5,KSEISQVFEIALKRNLPVNFEVARESGPPHMKNFVTKVSVGEFVGEGFGKSKKISKKNAAIAVLEEL [E48F],-0.01 ± 0.098
6,KSEISQVFEIALKRNLPVNFEVARESGPPHMKNFVTKVSVGEFVGEGEGKSKKISKKNAAIAVEEEL [L64E],-0.433 ± 0.055
7,KSEISQVFEIALKRNLPVNFEVARESGPPHMKNFVTKVSVGEFVGEGEGKSKKISKKNAAIAVPEEL [L64P],-0.454 ± 0.053
8,KSEISQVFEIALKRNLPVNFEVARESGPPHNKNFVTKVSVGEFVGEGEGKSKKISKKNAAIAVLEEL [M31N],0.083 ± 0.068
9,KSEISQVFEIALKRNLPVNFEVARESGPPHMKNFVTKVSVGEFVGEGEWKSKKISKKNAAIAVLEEL [G49W],-1.14 ± 0.11
10,KSEISQVFEIALKRNLPVNFEVARESVPPHMKNFVTKVSVGEFVGEGEGKSKKISKKNAAIAVLEEL [G27V],-0.457 ± 0.047
11,KSEISQVFEIALKRNLPVNFEVARESGPPHMKNFVTKVSCGEFVGEGEGKSKKISKKNAAIAVLEEL [V40C],-0.289 ± 0.1
12,KSEISQVFEIALKRNYPVNFEVARESGPPHMKNFVTKVSVGEFVGEGEGKSKKISKKNAAIAVLEEL [L16Y],-0.454 ± 0.088
13,KSEISQVFEIALKRNLPVNFEVARESGPPHMKNFVTKVSVGENVGEGEGKSKKISKKNAAIAVLEEL [F43N],-0.437 ± 0.13
14,KSEISQVFEIALKRNLPVNFEVARESGPPHMKNFSTKVSVGEFVGEGEGKSKKISKKNAAIAVLEEL [V35S],-0.111 ± 0.042
15,KSEISQVFEIALKRNLPVNFEVARESGPPHMKNFLTKVSVGEFVGEGEGKSKKISKKNAAIAVLEEL [V35L],-0.021 ± 0.04
16,KSEISQVFEIALKRNLPVNFEVARESGPPHMKNFVTKVSVGEFVGEPEGKSKKISKKNAAIAVLEEL [G47P],-0.763 ± 0.097
17,KSEISQVFEIALVRNLPVNFEVARESGPPHMKNFVTKVSVGEFVGEGEGKSKKISKKNAAIAVLEEL [K13V],-0.215 ± 0.055
18,KSEISQVFEIALPRNLPVNFEVARESGPPHMKNFVTKVSVGEFVGEGEGKSKKISKKNAAIAVLEEL [K13P],-0.528 ± 0.085
19,KSEISQVFEIALKRNLPVNFEVARESGCPHMKNFVTKVSVGEFVGEGEGKSKKISKKNAAIAVLEEL [P28C],-0.157 ± 0.069
20,KSEISQVAEIALKRNLPVNFEVARESGPPHMKNFVTKVSVGEFVGEGEGKSKKISKKNAAIAVLEEL [F8A],-0.334 ± 0.047
